# Literature values in patent publication US5998408A, “Triterpene derivatives with immunosuppressant activity” (Merck & Co., Inc., priority 1997, dated 1999).
# Biological target: T1, Kv 1.3 channels (CHO cells transfected with Kv 1.3 channels) (Homo sapiens, UniProt P22001)
# T1 construct: expressed in transfected cells; host or cells: CHO cells
# Conditions: stated property of the reference blocker used to set the efflux window
# T1 sequence (P22001 whole entry): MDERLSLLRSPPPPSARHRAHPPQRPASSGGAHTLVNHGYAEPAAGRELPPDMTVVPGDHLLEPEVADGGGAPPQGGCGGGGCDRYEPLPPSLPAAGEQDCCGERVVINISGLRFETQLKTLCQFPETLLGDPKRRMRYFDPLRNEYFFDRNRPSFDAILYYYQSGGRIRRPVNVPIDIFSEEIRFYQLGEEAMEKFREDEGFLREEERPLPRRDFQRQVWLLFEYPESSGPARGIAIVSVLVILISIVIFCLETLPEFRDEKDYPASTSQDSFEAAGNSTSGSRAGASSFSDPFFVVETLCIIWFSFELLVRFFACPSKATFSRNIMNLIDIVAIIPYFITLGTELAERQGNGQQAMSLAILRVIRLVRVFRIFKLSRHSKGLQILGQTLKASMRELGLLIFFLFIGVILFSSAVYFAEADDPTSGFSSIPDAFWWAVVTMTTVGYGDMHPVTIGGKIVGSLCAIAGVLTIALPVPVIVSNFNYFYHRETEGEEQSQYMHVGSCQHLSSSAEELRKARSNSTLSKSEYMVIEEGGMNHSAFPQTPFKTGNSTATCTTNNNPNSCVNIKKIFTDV
substance,measurement,value
"margatoxin (TIINVKCTSPKQCLPPCKAQFGQSAGAKCMNGKCKCYPH; UniProt P40755 1-39, looked up)",IC50,100 pM
